# Assays:
# Assay type in all cases: biochemical
# [1] = 4-HPPD inhibitor decomposition activity by HPLC, substrate BBC-OH; conditions: for BBC-OH decomposition activity: cell-free synthesized protein, FeCl2, ascorbic acid, 2-oxoglutarate, 30° C. for 3 hours, HPLC
# From the text: (§1) Then, the decomposition reaction of a 4-HPPD inhibitor was examined in the presence of divalent iron ions, 2-oxoglutarate, and molecular oxygen in a test tube by a method described later using the HIS1 protein prepared by this cell-free protein synthesis system.
# (§2) Here, in commercially-available wheat germ extracts, dithiothreitol (DTT) is used as a reducing agent and a protein synthesizing reaction liquid also contains DTT. It was confirmed in advance by liquid chromatography that under the coexistence of divalent iron ions and ascorbic acid, which is a stabilizer for the divalent iron ions, DTT generated radical compounds and secondarily affected the enzyme reaction of HIS1 proteins. For this reason, in the present Example, an unreported protein synthesizing reaction system using Tris (2-carboxyethyl) phosphine (TCEP) as a reducing agent instead of DTT was newly constructed, with which the synthesis of HIS1 proteins and the like was conducted to examine the 4-HPPD inhibitor decomposition activity of these. The decomposition activity was analyzed on the reaction liquid of the protein and the 4-HPPD inhibitor using a high-performance liquid chromatography (mobile phase; 0.5% acetic acid water:acetonitrile=65:35, flow rate; 1 mL/min, feeding; isocratic, column; CAPCELL PAK ADME S5).
# Then, the amounts of the synthesized proteins obtained in Examples 1 to 4 as described above were estimated as described below, followed by the analysis on the 4-HPPD inhibitor decomposition activities.
# Cell-free protein synthesis was conducted without adding [^14C]-Leucine Leucine under the same conditions as those in the estimation of the synthesized amount to estimate the protein concentration of this translation reaction liquid from the above-described estimation. Then, 100 μl of the translation reaction liquid was subjected to buffer exchange to a basic translation buffer (30 mM HEPES-KOH (pH=7.8), 100 mM KOAc) by using the illustra MicroSpin G-25 column (manufactured by GE Healthcare). The amounts of the solution before and after the buffer exchange were measured and the estimated protein concentration was corrected.
# An enzyme reaction liquid was prepared by mixing 250 mM of HEPES-KOH (pH 7.0) with a mixture liquid, which contained 0.25 mM of FeCl2, 1.5 mM of ascorbic acid, 1.5 mM of 2-oxoglutarate, and 0.75 mM of a substrate, and a translation reaction liquid, which contained a synthesized enzyme protein, in a proportion of 40% and 60%, respectively. After incubation at 30° C. for 3 hours, 100% methanol in the same amount as the enzyme reaction liquid was added and sufficiently mixed, followed by being left to stand for 5 minutes on ice. This was subjected to centrifuge separation (20, 400 g, 20 minutes, 4° C.) and the supernatant was passed through Cosmonice Filter W (0.45 μm) (manufactured by Nacalai Tesque, Inc.) to obtain a sample for high-performance liquid chromatography. The analysis on the substrate and the product before and after the enzyme reaction was conducted by loading a column_Pro C18 (150×4.6 mm I.D.) (manufactured by YMC Co., Ltd.) on a high-performance liquid chromatography device_ELITE LaChrom L-2000 series (manufactured by Hitachi, Ltd.). Elution was conducted at a flow speed of 1 mL/min and a column temperature of 40° C. under solvent conditions of acetonitrile:water (1% acetic acid)=55:45 or 50:50 (BBC-OH), acetonitrile:water (1% acetic acid)=45:55 (Sulcotrione), acetonitrile:water (1% acetic acid)=45:55 (Mesotrione), acetonitrile:water (1% acetic acid)=55:45 or 50:50 (tefryltrone), and acetonitrile:water (1% acetic acid)=55:45 or 50:50 (Tembotrione), respectively, and the compound was detected at an ultraviolet wavelength of 286 nm.
# (§3) Note that the 5-point scale of the decomposition activity in each of FIGS. 12 to 17 is based on a relative value of the degree of decrease in a substrate-derived peak area detected by HPLC where the degree of decrease in the HIS1 protein was designated by 5. […]
# [2] = 4-HPPD inhibitor decomposition activity by HPLC, substrate tefuryltrione
# From the text: as §1
# as §2, with “S5). […]” for “S5).”
# (§4) Cell-free protein synthesis was conducted without adding [^14C]-Leucine Leucine under the same conditions as those in the estimation of the synthesized amount to estimate the protein concentration of this translation reaction liquid from the above-described estimation. […] The amounts of the solution before and after the buffer exchange were measured and the estimated protein concentration was corrected. […]
# as §3
# [3] = 4-HPPD inhibitor decomposition activity by HPLC, substrate sulcotrione
# From the text: as §1
# as §2, with “S5). […]” for “S5).”
# as §4, §3
# [4] = cell-free synthesized protein, FeCl2, ascorbic acid, 2-oxoglutarate, 30° C. for 3 hours, HPLC
Molecule,BBC-OH decomposition activity [1],modification product of BBC-OH by mass analysis ([1]; mass analysis),cofactor dependence of the modification of BBC-OH ([1]; not shown),"tefuryltrione decomposition activity [2, 4]",modification product of tefuryltrione by mass analysis ([2]; mass analysis),"sulcotrione decomposition activity [3, 4]",modification product of sulcotrione by mass analysis ([3]; mass analysis)
"HIS1 protein: rice 2-oxoglutarate-dependent dioxygenase, typically a protein having an amino acid sequence of SEQ ID NO: 2 (protein, listed as Oryza sativa) MADESWRAPAIVQELAAAGVEEPPSRYLLREKDRSDVKLVAAELPEPLPVVDLSRLDGAEEATKLRVALQNWGFFLLTNHGVEASLMDSVMNLSREFFNQPIERKQKFSNLIDGKNFQIQGYGTDRVVTQDQILDWSDRLHLRVEPKEEQDLAFWPDHPESFRDVLNKYASGTKRIRDDIIQAMAKLLELDEDYFLDRLNEAPAFARFNYYPPCPRPDLVFGIRPHSDGTLLTILLVDKDVSGLQVQRDGKWSNVEATPHTLLINLGDTMEVMCNGIFRSPVHRVVTNAEKERISLAMLYSVNDEKDIEPAAGLLDENRPARYRKVSVEEFRAGIFGKFSRGERYIDSLRI",high decomposition activity,converted into a product with one oxygen atom added,only in the presence of divalent iron ions and 2-oxoglutarate,high decomposition activity,converted into a product with one oxygen atom added,high decomposition activity,converted into a product with one oxygen atom added
"OsHSL2 protein: rice-derived HSL protein, typically a protein having an amino acid sequence of SEQ ID NO: 6 (protein, listed as Oryza sativa) MADEPWRLPNIVQELAAGVQEPPSRYLQDLAGGDQLAGAEIPEPIPTIDLGRLSGSDGADEAAKLRSALQNWGLFLVSNHGVETSLIDAVIEAAREFFRQPVEEKKKLSNLIDGKRFQIEGYGNDPVQTKDQILDWSDRLHLKVEPECDRNLAFWPTHPKSFRDILHEYTLKIKTVKNDILLALAKLLELDEDCLLNQFSDRAITTARFNYYSPCPRPDLVLGLKPHSDLCALTVLLTDKEVGGLQVLRDGTWYSVPAVRDYSLLINIGVTLEIMTNGTFRAPLHRVVTNAERERMSVAMFYAVDGEKEIEPVAELLGLKQQSARYRGIKGKDLLIGHYEHFSRGGRVVDSLKI",only very weak decomposition activity,,,,,,
"ZmHSL2 protein: corn-derived HSL protein, typically a protein having an amino acid sequence of SEQ ID NO: 20 (protein, Zea mays) MAVESWTVPTPVKDLAALVDEPPSRFVQREEHRPGSLMLAADMPDPLPIVDLNKLSTADEAAKLRSALQTWGLFLATNHGIDASLMEDLMEASREFFHQPLQERQKYSNLREGTRFQLEGYGSDPVVAQDHILDWNDRLQLKVEPEDERSLAQWPKYPESFRDLLHEYASKTKSMRDRILRAMAKILELDEEEFIKQLGASPQAYARFNYYPPCPRPELVLGIKAHSDGPVLTVLLVDREVGGLQVQRENTWFNVPFVPHTLVINLGDSLEIMSNGIFKSPVHRVVTNAEKERISLAMLYAVERDNVLQPAAGLLDEKRPARYRRITEADFLEGVKEHFSKGIRMIETLKI","had the decomposition activity, which was less effective than that of the HIS1 protein",,,,,,
"SbHSL1 protein: sorghum-derived HSL protein, typically a protein having an amino acid sequence of SEQ ID NO: 22 (protein, Sorghum bicolor) MAGESWKVPTPVKDLAALVEEPPSQFVQREEDRPGSLMLAADMPDPLPIVDLDKMSTADEATKLRSALQTWGLFLATNHGIDVSLMEDLMKASREFFNQPLQERQKYSNLREGTRFQLEGYGSDPVIAQDHILDWSDRLQLKVEPEDERNLAQWPKHPESFRDLLHEYATKTKTVMVKILRAMAKTLELDEEDFIDQIGGRPQAYARFNYYPPCPRPELVLGIKAHSDGPLLTVLLVDREVGGLQIQRENKWFNVPSIPHALVINLGDSLEIMSNGIFKSPVHRVVTNAEKERISLAMLYAVQRDNVLEPAPGLLDEKRPAKYRRITEAHFLEGVKEHFSKGMRMIETLKI","had the decomposition activity, which was less effective than that of the HIS1 protein",,,,,,

# From patent publication US12644128B2, “Method for producing HSL protein having catalytic activity for 2-oxoglutaric acid-dependently oxidizing 4-HPPD inhibitor” (National Agriculture and Food Research Organization, priority 2017, dated 2026)
